Experiments:
Experiment in all cases: cell-based or functional assay
[1] = target: Env of HIV isolate 0013095-2.11 (clade C) (HIV)
[2] = target: Env of HIV isolate 001428-2.42 (clade C) (HIV)
[3] = target: Env of HIV isolate 00836-2.5 (clade C) (HIV)
[4] = target: Env of HIV isolate 25711-2.4 (clade C) (HIV)
[5] = target: Env of HIV isolate 3016.v5.c45 (clade D) (HIV)
[6] = target: Env of HIV isolate 3365.v2.c20 (clade A) (HIV)
[7] = target: Env of HIV isolate 3873.v1.c24 (clade C) (HIV)
[8] = target: Env of HIV isolate 3988.25 (clade B) (HIV)
[9] = target: Env of HIV isolate 45_01dG5 (clade B) (HIV)
[10] = target: Env of HIV isolate 6095.v1.c10 (clade ACD) (HIV)
[11] = target: Env of HIV isolate 6101.10 (clade B) (HIV)
[12] = target: Env of HIV isolate 6471.v1.c16 (clade C) (HIV)
[13] = target: Env of HIV isolate 6545.v4.c1 (clade AC) (HIV)
[14] = target: Env of HIV isolate 96ZM651.02 (clade C) (HIV)
[15] = target: Env of HIV isolate BG1168.01 (clade B) (HIV)
[16] = target: Env of HIV isolate BJOX010000.06.2 (clade AE) (HIV)
[17] = target: Env of HIV isolate C3347.c11 (clade AE) (HIV)
[18] = target: Env of HIV isolate CH181.12 (clade BC) (HIV)
[19] = target: Env of HIV isolate CNE10 (clade B) (HIV)
[20] = target: Env of HIV isolate CNE20 (clade BC) (HIV)
[21] = target: Env of HIV isolate CNE55 (clade AE) (HIV)
[22] = target: Env of HIV isolate CNE7 (clade BC) (HIV)
[23] = target: Env of HIV isolate MB201.A1 (clade A) (HIV)
[24] = target: Env of HIV isolate MI369.A5 (clade A) (HIV)
[25] = target: Env of HIV isolate MS208.A1 (clade A) (HIV)
[26] = target: Env of HIV isolate P1981.C5.3 (clade G) (HIV)
[27] = target: Env of HIV isolate Q769.d22 (clade A) (HIV)
[28] = target: Env of HIV isolate Q769.h5 (clade A) (HIV)
[29] = target: Env of HIV isolate QH0515.01 (clade B) (HIV)
[30] = target: Env of HIV isolate QH0692.42 (clade B) (HIV)
[31] = target: Env of HIV isolate R1166.C1 (clade AE) (HIV)
[32] = target: Env of HIV isolate TH023.6 (clade AE) (HIV)
[33] = target: HIV Env of isolate 0077.v1.c16 (HIV)
[34] = target: HIV Env of isolate 25711-2.4 (HIV)
[35] = target: HIV Env of isolate 25925-2.22 (HIV)
[36] = target: HIV Env of isolate 3873.v1.c24 (HIV)
[37] = target: HIV Env of isolate 426c (HIV)
[38] = target: HIV Env of isolate 6631.v3.c10 (HIV)
[39] = target: HIV Env of isolate A03349M1.vrc4a (HIV)
[40] = target: HIV Env of isolate CAP256.206.C9 (HIV)
[41] = target: HIV Env of isolate CE703010217.B6 (HIV)
[42] = target: HIV Env of isolate CNE21 (HIV)
[43] = target: HIV Env of isolate CNE58 (HIV)
[44] = target: HIV Env of isolate DU156.12 (HIV)
[45] = target: HIV Env of isolate P0402.c2.11 (HIV)
[46] = target: HIV Env of isolate TV1.29 (HIV)
[47] = target: HIV Env of isolate TZA125.17 (HIV)
[48] = target: HIV Env of isolate X1254.c3 (HIV)
[49] = target: HIV Env of isolate ZA012.29 (HIV)

B1: ePGT121.15 (ePGT121.15.H6 VH and ePGT121.15.L1 VL) (antibody, V domains shown)
VH: QMQLQESGPGLVKPGETLSLTCSVSGASISSSYWSWLRETPGKGLEWIGYTHHSGDTNYAPSLKSRVHLGLHPSKNQVSLSLTSVTAADTAVYYCARTLHGRRIYGVVAFNEFFTYFYWEVWGKGTQVTVSS
VL: SDISVAPGETVRISCGGESIGSRAVQWYQHRAGQAPKLIIYNNQDRPPGIPERFSGSPDIDFGTTATLTITNVEAGDEATYYCHIWDSRRPTNWVFGGGTTLTVL
- IC50, pseudovirus neutralization [1]: 3.01 µg/mL
- IC50, pseudovirus neutralization [2]: 0.002 µg/mL
- IC50, pseudovirus neutralization [3]: 2.25 µg/mL
- IC50, pseudovirus neutralization [4]: 0.004 µg/mL
- IC50, pseudovirus neutralization [5]: > 50 µg/mL
- IC50, pseudovirus neutralization [6]: 0.006 µg/mL
- IC50, pseudovirus neutralization [7]: 0.004 µg/mL
- IC50, pseudovirus neutralization [8]: 0.004 µg/mL
- IC50, pseudovirus neutralization [9]: 0.003 µg/mL
- IC50, pseudovirus neutralization [10]: 0.019 µg/mL
- IC50, pseudovirus neutralization [11]: 0.002 µg/mL
- IC50, pseudovirus neutralization [12]: 1.04 µg/mL
- IC50, pseudovirus neutralization [13]: > 50 µg/mL
- IC50, pseudovirus neutralization [14]: 0.001 µg/mL
- IC50, pseudovirus neutralization [15]: > 50 µg/mL
- IC50, pseudovirus neutralization [16]: > 50 µg/mL
- IC50, pseudovirus neutralization [17]: > 50 µg/mL
- IC50, pseudovirus neutralization [18]: 0.003 µg/mL
- IC50, pseudovirus neutralization [19]: 0.004 µg/mL
- IC50, pseudovirus neutralization [20]: 0.003 µg/mL
- IC50, pseudovirus neutralization [21]: > 50 µg/mL
- IC50, pseudovirus neutralization [22]: 0.005 µg/mL
- IC50, pseudovirus neutralization [23]: 0.004 µg/mL
- IC50, pseudovirus neutralization [24]: 0.004 µg/mL
- IC50, pseudovirus neutralization [25]: > 50 µg/mL
- IC50, pseudovirus neutralization [26]: 0.002 µg/mL
- IC50, pseudovirus neutralization [27]: > 50 µg/mL
- IC50, pseudovirus neutralization [28]: > 50 µg/mL
- IC50, pseudovirus neutralization [29]: 0.014 µg/mL
- IC50, pseudovirus neutralization [30]: 0.015 µg/mL
- IC50, pseudovirus neutralization [31]: > 50 µg/mL
- IC50, pseudovirus neutralization [32]: > 50 µg/mL
- IC80, pseudovirus neutralization [33]: > 50 µg/mL
- IC80, pseudovirus neutralization [34]: 0.008 µg/mL
- IC80, pseudovirus neutralization [35]: 0.013 µg/mL
- IC80, pseudovirus neutralization [36]: 0.011 µg/mL
- IC80, pseudovirus neutralization [37]: 1.38 µg/mL
- IC80, pseudovirus neutralization [38]: 0.065 µg/mL
- IC80, pseudovirus neutralization [39]: 0.019 µg/mL
- IC80, pseudovirus neutralization [40]: 0.006 µg/mL
- IC80, pseudovirus neutralization [41]: 0.012 µg/mL
- IC80, pseudovirus neutralization [42]: 0.004 µg/mL
- IC80, pseudovirus neutralization [43]: 0.075 µg/mL
- IC80, pseudovirus neutralization [44]: 0.005 µg/mL
- IC80, pseudovirus neutralization [45]: 0.007 µg/mL
- IC80, pseudovirus neutralization [46]: 0.01 µg/mL
- IC80, pseudovirus neutralization [47]: 0.403 µg/mL
- IC80, pseudovirus neutralization [48]: 0.009 µg/mL
- IC80, pseudovirus neutralization [49]: 0.012 µg/mL

Reference: patent US20210292396A1
